{
  "source": "patent US20080274959A1",
  "about": "“Actinomadura Chromoprotein, Apoprotein and Gene Cluster” (Wyeth, priority 2004, published 2008)",
  "key": {"Histone H1": {"tested_on": "Histone H1", "experiment": "Digestion of histone H1, SDS-PAGE", "format": "biochemical", "experimental": "Histone H1 was incubated with various concentrations of the chromoprotein in 50 mM Tris-Cl, pH 7.5 overnight at 37° C. (FIG. 20) Digestions of histone were assessed by SDS-polyacrylamide gel electrophoresis (SDS-PAGE), followed by staining of the gel with GelCode Blue (Pierce Biotechnology, Inc, Rockford, Ill.)."}, "histone H1 in HeLa cells": {"tested_on": "histone H1 in HeLa cells", "experiment": "Digestion of histone H1 in HeLa cells, immunoblot", "format": "cell-based", "conditions": "overnight at 37° C., anti-histone H1 immunoblot", "experimental": "To study whether the digestion of histones by the chromoprotein occurs in intact cells, HeLa cells were incubated with compounds overnight at 37° C. Cell lysates were analysed by SDS-PAGE and protein immunoblotting using anti-histone H1 antibodies (Santa Cruz Biotechnologies). […] This activity can contribute to antitumor effects by digesting histones in chromatin, making the DNA more accessible for cleavage. This appears to be a unique activity of the chromoprotein enediynes."}, "PC3": {"tested_on": "PC3", "experiment": "Potency against human tumor cell lines: PC3", "format": "cell-based", "conditions": "PC3, Prostate"}, "HN5": {"tested_on": "HN5", "experiment": "Potency against human tumor cell lines: HN5", "format": "cell-based", "conditions": "HN5, Head & Neck"}, "LOX": {"tested_on": "LOX", "experiment": "Potency against human tumor cell lines: LOX", "format": "cell-based", "conditions": "Melanoma"}, "DLD1": {"tested_on": "DLD1", "experiment": "Potency against human tumor cell lines: DLD1", "format": "cell-based", "conditions": "DLD1, Colon"}, "[1]": {"tested_on": "HCT116 p21+/+ and −/− cells", "experiment": "COMET assay for DNA damage", "format": "cell-based, human", "conditions": "both p21-proficient and p21-deficient HCT116 cells", "from_the_text": "A COMET assay obtained from Trevigen, Inc. was used to detect DNA damage. HCT116 p21+/+ and −/− cells were subjected to various amounts of the 21G792 chromoprotein and mitoxantrone."}, "KB-V-1": {"tested_on": "KB-V-1", "experiment": "IC50 against P-GP expressing cells: KB-V-1", "format": "cell-based", "conditions": "KB-V-1, P-GP level +++; mean of two independent experiments", "from_the_text": "(§1) Human PGP (MDR1) is an ATP-dependent efflux pump which is capable of transporting many drugs across cell membranes. High level expression of this protein has been linked to multiple drug resistance of tumors. […] The protein component of the chromoprotein probably protects the chromophore from drug efflux mediated by MDR1, and may be responsible for the beneficial antitumor effects in colon cell lines which often express MDR1."}, "MDA-MB-361": {"tested_on": "MDA-MB-361", "experiment": "Potency against human tumor cell lines: MDA-MB-361", "format": "cell-based", "conditions": "MDA-MB-361, Breast"}, "Toxicity in nude mice": {"experiment": "Toxicity in nude mice", "format": "in vivo", "conditions": "for Bone Marrow Necrosis, average lesion severity: 0 = WNL, 1 = slight, 2 = mild, 3 = moderate, 4 = marked, 5 = severe", "experimental": "21G792 chromoprotein is well-tolerated in nude mice. Specifically, saline control vehicle or the chromoprotein in various doses was administered intravenously to six nude mice on days 1, 5, and 9."}, "SW620": {"tested_on": "SW620", "experiment": "Potency against human tumor cell lines: SW620", "format": "cell-based", "conditions": "SW620, Colon"}, "HCT116 cells": {"tested_on": "HCT116 cells", "experiment": "Uptake of FITC-tagged protein, fluorescent microscopy / flow cytometry", "format": "cell-based, human", "conditions": "FITC-labeled", "from_the_text": "To determine the mechanism by which the chromoprotein enters cells and exerts its biological activity, the chromoprotein was labeled with a fluorescent tag (FITC) using EZ-Label fluorescent labeling kit (Pierce Biotechnology), according to the manufacturer's recommendation. […] Uptake of labeled material by HCT116 colon carcinoma cells was studied by fluorescent microscopy.\nTo determine whether an intact complex of chromophore and apoprotein is required for cellular and nuclear entry, the chromoprotein and apoprotein were labeled with FITC. Uptake of labeled material was studied by fluorescent microscopy.\nTo determine whether the entry of chromoprotein into cells is mediated by a saturable (e.g. cell surface receptor-dependent) process, HCT116 cells were incubated with FITC-labeled chromoprotein (FIG. 28, right panel) or apoprotein (FIG. 28, left panel) in the absence or presence of 10-fold excess of unlabeled reagent (unlabelled chromoprotein or apoprotein, respectively). Cells were analysed by fluorescent microscopy (left) or flow cytometry (right). […] Numbers in the histograms are mean channel numbers (FITC fluorescence).\nOther means by which a protein complex can enter cells is pinocytosis, where caveolae in the surface of the cell pinch off to form pinosomes that are free within the cytoplasm of the cell. Since pinocytosis is an energy-dependent process that requires a functional tubulin cytoskeletal network, we examined the effect of sodium azide, an energy uncoupling agent and nocodazole, an agent which disrupts the tubulin cytoskeleton on cellular uptake. HCT116 cells were treated with FITC-labeled apoprotein in the absence or presence of sodium azide or nocodazole."}, "BT474": {"tested_on": "BT474", "experiment": "Potency against human tumor cell lines: BT474", "format": "cell-based", "conditions": "BT474, Breast"}, "HCT116": {"tested_on": "HCT116", "experiment": "Potency against human tumor cell lines: HCT116", "format": "cell-based", "conditions": "HCT116, Colon", "experimental": "The Actinomadura sp. 21G792 chromoprotein was added to an isogenic pair of cell lines (p21+/+ and p21−/−)."}, "LoVo": {"tested_on": "LoVo", "experiment": "Potency against human tumor cell lines: LoVo", "format": "cell-based", "conditions": "Colon"}, "Supercoiled φX174 DNA": {"tested_on": "Supercoiled φX174 DNA", "experiment": "DNA cleavage assay, gel electrophoresis", "format": "biochemical", "experimental": "Supercoiled φX174 DNA was incubated with various concentrations of the 21G792 chromoprotein and analyzed by gel electrophoresis. […] Nicked refers to single strand breaks in the DNA and linear refers to double strand breaks."}, "[2]": {"tested_on": "p53/p21 checkpoint in HCT116 (p21+/+ and p21−/−) cells", "experiment": "Induction of the G1/S (p53/p21) checkpoint, immunoblot", "format": "cell-based, human", "from_the_text": "HCT116 (p21+/+ and p21−/−) cells were exposed to the chromoprotein at various concentrations. […] Activation of the DNA damage checkpoint by the Actinomadura sp. […] 21G792 chromoprotein as shown by the cleavage of poly ADP ribose […] (PARP) (FIG. 23B). This is consistent with the lower IC50 value in the p21−/− cells."}, "KB-8-5": {"tested_on": "KB-8-5", "experiment": "IC50 against P-GP expressing cells: KB-8-5", "format": "cell-based", "conditions": "KB-8-5, P-GP level +; mean of two independent experiments", "from_the_text": "as §1"}},
  "data": [
    {"molecule": "Actinomadura sp. 21G792 chromoprotein: non-covalent complex of an apoprotein and a chromophore comprising a nine-membered enediyne, produced by Actinomadura sp. 21G792 (NRRL 30778) (protein) DTVTVNYDCVGYPSDIAVTIDAPATAGVGDTATFEVSSVVTTGAPQDLPAGEVVTDMAIVVGGAQSGTITASGLTNEATPAGQPVNMVGGEAQITFTSAGSVTFTPSTTTQVDNGAQCTVVGEAPVGATTVVS", "values": [
      {"measurement": "digestion of histone H1 on addition of DNA", "setting": "Histone H1", "result": "inhibited by addition of DNA"},
      {"measurement": "digestion of histones on addition of free radical scavengers", "setting": "Histone H1; 30 mM glutathione or N-acetyl cysteine", "result": "inhibited by the addition of free radical scavengers"},
      {"measurement": "digestion of histone H1", "setting": "Histone H1; 50 mM Tris-Cl, pH 7.5 overnight at 37° C.", "result": "digestion of Histone H1"},
      {"measurement": "digestion of histones on addition of protease inhibitors", "setting": "Histone H1; PMSF, Leupeptin, Aprotinin, Pepstatin A", "result": "not by protease inhibitors"},
      {"measurement": "histone H1 in cells after incubation", "setting": "histone H1 in HeLa cells", "result": "reduced histone H1 in cells"},
      {"measurement": "IC50", "setting": "PC3", "result": 22000, "unit": "ng/mL"},
      {"measurement": "IC50", "setting": "HN5", "result": 4, "unit": "ng/mL"},
      {"measurement": "IC50", "setting": "LOX", "result": 1, "unit": "ng/mL"},
      {"measurement": "IC50", "setting": "DLD1", "result": 8000, "unit": "ng/mL"},
      {"measurement": "concentration at which dose-dependent DNA strand breaks occur", "setting": "[1]", "result": "> 100", "unit": "ng/mL"},
      {"measurement": "IC50", "setting": "KB-V-1", "result": 142, "unit": "ng/mL"},
      {"measurement": "IC50", "setting": "MDA-MB-361", "result": 5, "unit": "ng/mL"},
      {"measurement": "Lymphocytes", "setting": "Toxicity in nude mice; 3 mg/kg", "result": 290, "unit": "cells/μl"},
      {"measurement": "WBC", "setting": "Toxicity in nude mice; 3 mg/kg", "result": 1430, "unit": "cells/μl"},
      {"measurement": "Bone Marrow Necrosis, number with lesion/total number examined", "setting": "Toxicity in nude mice; 3 mg/kg i.v. days 1, 5, 9", "result": "6/6"},
      {"measurement": "Bone Marrow Necrosis, average lesion severity", "setting": "Toxicity in nude mice; 3 mg/kg", "result": 1.7},
      {"measurement": "Lymphocytes", "setting": "Toxicity in nude mice; 6 mg/kg", "result": 40, "unit": "cells/μl"},
      {"measurement": "WBC", "setting": "Toxicity in nude mice; 6 mg/kg", "result": 1280, "unit": "cells/μl"},
      {"measurement": "Bone Marrow Necrosis, number with lesion/total number examined", "setting": "Toxicity in nude mice; 6 mg/kg i.v. days 1, 5, 9", "result": "6/6"},
      {"measurement": "Bone Marrow Necrosis, average lesion severity", "setting": "Toxicity in nude mice; 6 mg/kg", "result": 3},
      {"measurement": "tolerability", "setting": "Toxicity in nude mice; intravenous on days 1, 5 and 9", "result": "well-tolerated"},
      {"measurement": "adverse effects in the intestine, nerves, spinal cord, liver, or at the site of injection", "setting": "Toxicity in nude mice; mouse, in vivo", "result": "No adverse effects"},
      {"measurement": "IC50", "setting": "SW620", "result": 2, "unit": "ng/mL"},
      {"measurement": "biological activity after FITC labeling", "setting": "HCT116 cells", "result": "No loss of biological activity"},
      {"measurement": "uptake, apoprotein compared with chromoprotein", "setting": "HCT116 cells", "result": "similar"},
      {"measurement": "cellular localisation of label", "setting": "HCT116 cells; incubation 3-6 hours, fluorescent microscopy", "result": "Most of the label appeared in the cytoplasm"},
      {"measurement": "competition of uptake by 10-fold excess of unlabeled reagent", "setting": "HCT116 cells; microscopy or flow cytometry", "result": "No competition of label"},
      {"measurement": "IC50", "setting": "BT474", "result": 47, "unit": "ng/mL"},
      {"measurement": "IC50", "setting": "HCT116", "result": 1000, "unit": "ng/mL"},
      {"measurement": "IC50", "setting": "LoVo", "result": 2, "unit": "ng/mL"},
      {"measurement": "need of a reducing agent (dithiothreitol, DTT) for DNA cleavage", "setting": "Supercoiled φX174 DNA", "result": "did not require a reducing agent"},
      {"measurement": "DNA cleavage", "setting": "Supercoiled φX174 DNA; various concentrations, reaction progressed over 24 hours", "result": "induced single strand breaks and double strand breaks"},
      {"measurement": "induction of the p21 protein", "setting": "[2]", "result": "seen in the p21+/+ cells only"},
      {"measurement": "phosphorylation of serine-15 of p53", "setting": "[2]", "result": "phosphorylation of the serine-15 amino acid residue in p53"},
      {"measurement": "activation of the p53 checkpoint", "setting": "[2]; HCT116 p21+/+ and p21−/−, various concentrations", "result": "activation of the p53 checkpoint for all tested concentrations"},
      {"measurement": "induction of apoptosis (PARP cleavage)", "setting": "[2]; p21−/− compared with p21+/+ cells", "result": "preferentially observed in p21−/− cells"},
      {"measurement": "IC50", "setting": "KB-8-5", "result": 6, "unit": "ng/mL"}
    ]}
  ]
}
